Key:
[1] = substrate: CC(=O)OCC1=C(C(=O)O)N2C(=O)[C@@H](NC(=O)Cc3cccs3)[C@H]2SC1; test: (§1) Activity of Klebsiella pneumoniae KPC-1 beta lactamase expressed in Escherichia coli DH5alpha by SDS-PAGE
[2] = substrate: CC(C)(O/N=C(\C(=O)N[C@@H]1C(=O)N2C(C(=O)[O-])=C(C[n+]3ccccc3)CS[C@H]12)c1csc(N)n1)C(=O)O; test: as §1
[3] = substrate: CC1(C)S[C@@H]2[C@H](NC(=O)[C@H](N)c3ccccc3)C(=O)N2[C@H]1C(=O)O; test: as §1
[4] = substrate: CCN1CCN(C(=O)N[C@@H](C(=O)N[C@@H]2C(=O)N3[C@@H]2SC(C)(C)[C@@H]3C(=O)O)c2ccccc2)C(=O)C1=O; test: as §1
[5] = substrate: CO/N=C(\C(=O)N[C@@H]1C(=O)N2C(C(=O)O)=C(COC(C)=O)CS[C@H]12)c1csc(N)n1; test: as §1
[6] = substrate: CO[C@@]1(NC(=O)Cc2cccs2)C(=O)N2C(C(=O)O)=C(COC(N)=O)CS[C@@H]21; test: as §1
[7] = substrate: C[C@@H](O)[C@H]1C(=O)N2C(C(=O)O)=C(SCCNC=N)C[C@H]12; test: as §1
[8] = substrate: C[C@@H](O)[C@H]1C(=O)N2C(C(=O)O)=C(S[C@@H]3CN[C@H](C(=O)N(C)C)C3)[C@H](C)[C@H]12; test: as §1
[9] = substrate: C[C@H]1[C@H](NC(=O)/C(=N\OC(C)(C)C(=O)O)c2csc(N)n2)C(=O)N1S(=O)(=O)O; test: as §1
[10] = substrate: CC(=O)OCC1=C(C(=O)O)N2C(=O)[C@@H](NC(=O)Cc3cccs3)[C@H]2SC1; test: (§2) Ratio of Kcat to Km for Klebsiella pneumoniae KPC-1 beta lactamase expressed in Escherichia coli DH5alpha by SDS-PAGE
[11] = substrate: CC(C)(O/N=C(\C(=O)N[C@@H]1C(=O)N2C(C(=O)[O-])=C(C[n+]3ccccc3)CS[C@H]12)c1csc(N)n1)C(=O)O; test: as §2
[12] = substrate: CC1(C)S[C@@H]2[C@H](NC(=O)[C@H](N)c3ccccc3)C(=O)N2[C@H]1C(=O)O; test: as §2
[13] = substrate: CCN1CCN(C(=O)N[C@@H](C(=O)N[C@@H]2C(=O)N3[C@@H]2SC(C)(C)[C@@H]3C(=O)O)c2ccccc2)C(=O)C1=O; test: as §2
[14] = substrate: CO/N=C(\C(=O)N[C@@H]1C(=O)N2C(C(=O)O)=C(COC(C)=O)CS[C@H]12)c1csc(N)n1; test: as §2
[15] = substrate: CO[C@@]1(NC(=O)Cc2cccs2)C(=O)N2C(C(=O)O)=C(COC(N)=O)CS[C@@H]21; test: as §2
[16] = substrate: C[C@@H](O)[C@H]1C(=O)N2C(C(=O)O)=C(SCCNC=N)C[C@H]12; test: as §2
[17] = substrate: C[C@@H](O)[C@H]1C(=O)N2C(C(=O)O)=C(S[C@@H]3CN[C@H](C(=O)N(C)C)C3)[C@H](C)[C@H]12; test: as §2
[18] = substrate: C[C@H]1[C@H](NC(=O)/C(=N\OC(C)(C)C(=O)O)c2csc(N)n2)C(=O)N1S(=O)(=O)O; test: as §2
[19] = substrate: CC(=O)OCC1=C(C(=O)O)N2C(=O)[C@@H](NC(=O)Cc3cccs3)[C@H]2SC1; conditions: Enterobacter cloacae
Description: (§3) Activity of Enterobacter cloacae IMI1 beta lactamase expressed in Escherichia coli DH5alpha by SDS-PAGE

[20] = substrate: CC(C)(O/N=C(\C(=O)N[C@@H]1C(=O)N2C(C(=O)[O-])=C(C[n+]3ccccc3)CS[C@H]12)c1csc(N)n1)C(=O)O; conditions: Enterobacter cloacae
Description: as §3

[21] = substrate: CC1(C)S[C@@H]2[C@H](NC(=O)[C@H](N)c3ccccc3)C(=O)N2[C@H]1C(=O)O; conditions: Enterobacter cloacae
Description: as §3

[22] = substrate: CCN1CCN(C(=O)N[C@@H](C(=O)N[C@@H]2C(=O)N3[C@@H]2SC(C)(C)[C@@H]3C(=O)O)c2ccccc2)C(=O)C1=O; conditions: Enterobacter cloacae
Description: as §3

[23] = substrate: CO/N=C(\C(=O)N[C@@H]1C(=O)N2C(C(=O)O)=C(COC(C)=O)CS[C@H]12)c1csc(N)n1; conditions: Enterobacter cloacae
Description: as §3

[24] = substrate: CO[C@@]1(NC(=O)Cc2cccs2)C(=O)N2C(C(=O)O)=C(COC(N)=O)CS[C@@H]21; conditions: Enterobacter cloacae
Description: as §3

[25] = substrate: C[C@@H](O)[C@H]1C(=O)N2C(C(=O)O)=C(SCCNC=N)C[C@H]12; conditions: Enterobacter cloacae
Description: as §3

[26] = substrate: C[C@@H](O)[C@H]1C(=O)N2C(C(=O)O)=C(S[C@@H]3CN[C@H](C(=O)N(C)C)C3)[C@H](C)[C@H]12; conditions: Enterobacter cloacae
Description: as §3

[27] = substrate: C[C@H]1[C@H](NC(=O)/C(=N\OC(C)(C)C(=O)O)c2csc(N)n2)C(=O)N1S(=O)(=O)O; conditions: Enterobacter cloacae
Description: as §3

[28] = substrate: CC(=O)OCC1=C(C(=O)O)N2C(=O)[C@@H](NC(=O)Cc3cccs3)[C@H]2SC1; conditions: Enterobacter cloacae; remark: listed apart in the source
Description: (§4) Ratio of Kcat to Km for Enterobacter cloacae IMI1 beta lactamase Escherichia coli DH5alpha by SDS-PAGE

[29] = substrate: CC(C)(O/N=C(\C(=O)N[C@@H]1C(=O)N2C(C(=O)[O-])=C(C[n+]3ccccc3)CS[C@H]12)c1csc(N)n1)C(=O)O; conditions: Enterobacter cloacae; remark: listed apart in the source
Description: as §4

[30] = substrate: CC1(C)S[C@@H]2[C@H](NC(=O)[C@H](N)c3ccccc3)C(=O)N2[C@H]1C(=O)O; conditions: Enterobacter cloacae; remark: listed apart in the source
Description: as §4

[31] = substrate: CCN1CCN(C(=O)N[C@@H](C(=O)N[C@@H]2C(=O)N3[C@@H]2SC(C)(C)[C@@H]3C(=O)O)c2ccccc2)C(=O)C1=O; conditions: Enterobacter cloacae; remark: listed apart in the source
Description: as §4

[32] = substrate: CO/N=C(\C(=O)N[C@@H]1C(=O)N2C(C(=O)O)=C(COC(C)=O)CS[C@H]12)c1csc(N)n1; conditions: Enterobacter cloacae; remark: listed apart in the source
Description: as §4

[33] = substrate: CO[C@@]1(NC(=O)Cc2cccs2)C(=O)N2C(C(=O)O)=C(COC(N)=O)CS[C@@H]21; conditions: Enterobacter cloacae; remark: listed apart in the source
Description: as §4

[34] = substrate: C[C@@H](O)[C@H]1C(=O)N2C(C(=O)O)=C(SCCNC=N)C[C@H]12; conditions: Enterobacter cloacae; remark: listed apart in the source
Description: as §4

[35] = substrate: C[C@@H](O)[C@H]1C(=O)N2C(C(=O)O)=C(S[C@@H]3CN[C@H](C(=O)N(C)C)C3)[C@H](C)[C@H]12; conditions: Enterobacter cloacae; remark: listed apart in the source
Description: as §4

[36] = substrate: C[C@H]1[C@H](NC(=O)/C(=N\OC(C)(C)C(=O)O)c2csc(N)n2)C(=O)N1S(=O)(=O)O; conditions: Enterobacter cloacae; remark: listed apart in the source
Description: as §4

B1: Carbapenem-hydrolyzing beta-lactamase KPC (Klebsiella pneumoniae), Q9F663 (protein)
chain: MSLYRRLVLLSCLSWPLAGFSATALTNLVAEPFAKLEQDFGGSIGVYAMDTGSGATVSYRAEERFPLCSSFKGFLAAAVLARSQQQAGLLDTPIRYGKNALVPWSPISEKYLTTGMTVAELSAAAVQYSDNAAANLLLKELGGPAGLTAFMRSIGDTTFRLDRWELELNSAIPGDARDTSSPRAVTESLQKLTLGSALAAPQRQQFVDWLKGNTTGNHRIRAAVPADWAVGDKTGTCGVYGTANDYAVVWPTGRAPIVLAVYTRAPNKDDKHSEAVIAAAARLALEGLGVNGQ
Which Km [1] does the source give for B1 here?
The Km was 53 µM.

And the kcat [1]?
The kcat was 75 s⁻¹.

And the Km [2]?
The Km was 94 µM.

And the kcat [2]?
Its kcat is 0.1 s⁻¹.

What about the Km [3] of the same protein?
Its Km is 130 µM.

What about the kcat [3] of the same protein?
The kcat was 110 s⁻¹.

And the Km [4]?
The Km was 18 µM.

What about the kcat [4] of the same protein?
Its kcat is 24 s⁻¹.

And the Km [5]?
Its Km is 160 µM.

And the kcat [5]?
Its kcat is 14 s⁻¹.

What about the Km [6] of the same protein?
Its Km is 120 µM.

And the kcat [6]?
Its kcat is 0.26 s⁻¹.

And the Km [7]?
The Km was 81 µM.

What about the kcat [7] of the same protein?
The kcat was 12 s⁻¹.

And the Km [8]?
The Km was 12 µM.

What about the kcat [8] of the same protein?
Its kcat is 3 s⁻¹.

And the Km [9]?
The Km was 310 µM.

What about the kcat [9] of the same protein?
Its kcat is 20 s⁻¹.

And the kcat/Km [10]?
Its kcat/Km is 1.4e+06 M⁻¹ s⁻¹.

What about the kcat/Km [11] of the same protein?
Its kcat/Km is 1000 M⁻¹ s⁻¹.

And the kcat/Km [12]?
Its kcat/Km is 850000 M⁻¹ s⁻¹.

And the kcat/Km [13]?
Its kcat/Km is 1.33e+06 M⁻¹ s⁻¹.

And the kcat/Km [14]?
Its kcat/Km is 90000 M⁻¹ s⁻¹.

What about the kcat/Km [15] of the same protein?
Its kcat/Km is 2000 M⁻¹ s⁻¹.

And the kcat/Km [16]?
Its kcat/Km is 150000 M⁻¹ s⁻¹.

And the kcat/Km [17]?
The kcat/Km was 250000 M⁻¹ s⁻¹.

And the kcat/Km [18]?
The kcat/Km was 70000 M⁻¹ s⁻¹.

B2: IMI-1 (Enterobacter cloacae), Q46991 (protein)
chain: MSLNVKPSRIAILFSSCLVSISFFSQANTKGIDEIKDLETDFNGRIGVYALDTGSGKSFSYKANERFPLCSSFKGFLAAAVLKGSQDNQLNLNQIVNYNTRSLEFHSPITTKYKDNGMSLGDMAAAALQYSDNGATNIILERYIGGPEGMTKFMRSIGDKDFRLDRWELDLNTAIPGDERDTSTPAAVAKSLKTLALGNILNEREKETYQTWLKGNTTGAARIRASVPSDWVVGDKTGSCGAYGTANDYAVVWPKNRAPLIISVYTTKNEKEAKHEDKVIAEASRIAIDNLK
With B2 as the protein, how does the Km [19] read?
The Km was 130 µM.

And the kcat [19]?
Its kcat is 120 s⁻¹.

And the Km [20]?
The Km was 270 µM.

What about the kcat [20] of the same protein?
Its kcat is 0.0068 s⁻¹.

And the Km [21]?
Its Km is 780 µM.

What about the kcat [21] of the same protein?
The kcat was 190 s⁻¹.

What about the Km [22] of the same protein?
The Km was 13 µM.

What about the kcat [22] of the same protein?
The kcat was 6.1 s⁻¹.

What about the Km [23] of the same protein?
The Km was 190 µM.

And the kcat [23]?
Its kcat is 3.4 s⁻¹.

What about the Km [24] of the same protein?
Its Km is 45 µM.

What about the kcat [24] of the same protein?
The kcat was 0.3 s⁻¹.

What about the Km [25] of the same protein?
The Km was 170 µM.

And the kcat [25]?
The kcat was 89 s⁻¹.

What about the Km [26] of the same protein?
The Km was 26 µM.

And the kcat [26]?
The kcat was 10 s⁻¹.

What about the Km [27] of the same protein?
Its Km is 93 µM.

What about the kcat [27] of the same protein?
The kcat was 51 s⁻¹.

What about the kcat/Km [28] of the same protein?
Its kcat/Km is 920000 M⁻¹ s⁻¹.

And the kcat/Km [29]?
The kcat/Km was 24 M⁻¹ s⁻¹.

What about the kcat/Km [30] of the same protein?
The kcat/Km was 240000 M⁻¹ s⁻¹.

And the kcat/Km [31]?
Its kcat/Km is 470000 M⁻¹ s⁻¹.

What about the kcat/Km [32] of the same protein?
Its kcat/Km is 18000 M⁻¹ s⁻¹.

What about the kcat/Km [33] of the same protein?
Its kcat/Km is 6700 M⁻¹ s⁻¹.

What about the kcat/Km [34] of the same protein?
The kcat/Km was 520000 M⁻¹ s⁻¹.

What about the kcat/Km [35] of the same protein?
Its kcat/Km is 380000 M⁻¹ s⁻¹.

What about the kcat/Km [36] of the same protein?
Its kcat/Km is 550000 M⁻¹ s⁻¹.

Reference: ChEMBL document CHEMBL1137666, “Biochemical Characterization of SFC-1, a class A carbapenem-hydrolyzing beta-lactamase” (Antimicrob Agents Chemother, 2007)
